From patent US20150183839A1, “SOYBEAN NODULATION REGULATORY PEPTIDES AND METHODS OF USE” (priority 2010, published 2015)
“Also recorded” adds a separate entry of the source.

Key:
[1] = test system: CLE30, CLE60 and CLE80 gene expression in soybean root; test: RT-qPCR of CLE gene expression in soybean roots after nitrogen source treatment; format: in vivo, Glycine max; conditions: for expression of CLE30 and CLE80 in roots / CLE60 expression in roots: 10 mM for two weeks; for expression of CLE30 and CLE80 in roots: relative to KCl control; for CLE60 expression in roots: relative to control
Experimental: FIG. 15. To test if CLE60 (GmNIC1) is induced by alternative nitrogen sources we treated soybeans with 10 mM solutions of the following chemicals for two weeks prior to harvesting root tissue to analyse gene expression: Ammonium Chloride (NH4Cl), Potassium Nitrate (KNO3) and Potassium Chloride control (KCl).
(§1) Soybean (Glycine max) lines used include the wild type Williams and its isogenic supernodulating nark mutant lines, nod4 and nod3-7 and the wild type Bragg and its isogenic hypernodulating nark mutant line, nts1116. Plants were grown in controlled glasshouse conditions (28° C./26° C. day/night, 16 hour day) in autoclaved pots and vermiculite where sterile growing conditions were required. Seeds requiring sterilisation were treated with 70% ethanol, 3% H2O2 for 1 min, followed by several rinses with water. Plants were watered as required with a modified nutrient solution lacking nitrogen (Herridge, 1982). Plants were inoculated with approximately OD600 0.01 Bradyrhizobium japonicum CB1809 or the corresponding NF mutant nodU grown in yeast-mannitol broth (YMB) at 28° for two days. For nitrate treatments, plants were watered with the indicated solutions of KNO3 every two days. For grafting experiments, reciprocal grafting was carried out 8 d after sowing and the graft unions were allowed to recover for 6 d before B. japonicum inoculation. Nodulation was scored three weeks after inoculation.
For gene expression analyses, tissue was snap frozen and homogenized in liquid nitrogen using a mortar and pestle. RNA was extracted using TRIzol reagent according to the manufacturer's instructions (Invitrogen). DNAse treatment (Fermentas, Ontario) was performed on 1 μg of RNA in the presence of MgCL2. cDNA was synthesised with SuperScript III (Invitrogen) from 0.5 μg DNAse treated RNA. RT-qPCR was conducted using an ABI 7900HT cycler in 384 well plates with SYBR green fluorescence detection. All reactions were performed in duplicate for at least three biological replicates using intron-spanning primers where possible and a target amplicon of approximately 100 bp (full primer sequences are included in Table 2). Gene expression values were calculated relative to ATP synthase after normalisation for PCR efficiency and plot correlation (R2) values of each primer pair as determined by LinRegPCR 7.5 (Ramakers et al., 2003).
In a preliminary study to determine if nitrate can induce the expression of the soybean CLE genes, root tissue was harvested after treatment with either 0 mM (water control) or 10 mM KNO3 for two weeks. […] A more thorough study to identify the induction of CLE60 expression by nitrate was subsequently performed using, root tissue harvested at 0, 8 or 24 h after the commencement of the above treatments.
Soybean plants were treated with either 0, 2, 5, 10 or 15 mM KNO3 for 2 days prior to, and for 2 weeks following, rhizobia inoculation. The treated plants were then harvested simultaneously for RT-qPCR and nodule count studies.

[2] = test system: Medicago truncatula nodulation; conditions: cited from earlier work
soybean nodulation [3] = test: Nodule numbers of soybean plants treated with KNO3 (incl. grafted plants); format: in vivo, Glycine max
Experimental: as §1
Soybean plants were treated with either 0, 2, 5, 10 or 15 mM KNO3 for 2 days prior to, and for 2 weeks following, rhizobia inoculation. The treated plants were then harvested simultaneously for RT-qPCR and nodule count studies. […]

soybean nodulation [4] = test: Over-expression of CLE genes in transgenic soybean hairy roots, nodule number (Example 1); format: in vivo, Glycine max; conditions: for NARK/SUNN/HAR1 dependent inhibition / Systemic activity: Glycine max; for nodulation (nodule number) on over-expression: vs vector-only control
Experimental: as §1
The full length CDS of CLE30, CLE60 and CLE80 was directionally cloned into the pKANNIBAL vector for expression of RNAi constructs (Wesley et al., 2001). Pfu polymerase (Stratagene, La Jolla, Calif.) was used to amplify PCR products incorporating restriction nuclease sites from cDNA samples shown to express the target gene. XhoI/EcoRI (for) and KpnI (rev) restriction sites were included in the primer sequences depending on internal restriction sites of each gene (full primer sequences are included in Table 2). Likely clones were confirmed by direct DNA sequencing and capillary separation. Constructs were sub-cloned into p15SRK2 or pM1KCK1 integration vectors (A. Kereszt, unpublished) as a NotI fragment before tri-parental mating to introduce the constructs into Agrobacterium rhizogenes K599. For transgenic root verification in the CLE60 over-expression experiments the DsRed reporter was subcloned into pM1KCK1 from pHairyRed, which is a modified version of pCAMBIA (M-H Lin, P M Gresshoff, B J Ferguson, unpublished). Tri-parental mating was used to introduce DsRed into A. rhizogenes K599 carrying the CLE60 construct. A. rhizogenes were subsequently used for the induction of transgenic soybean hairy roots according to Kereszt et al (2007).
To determine if the soybean CLE peptides regulate nodulation in a NARK-dependent manner, a reverse-genetics approach using a hairy-root transformation system was used. Over-expression of a systemic Q signal would be expected to inhibit nodulation, even in non-transformed roots. To test this, the complete CDS of CLE30, CLE60 or CLE80 was cloned into the pKANNIBAL vector for the expression of efficient RNAi constructs (Wesley et al., 2001). However, to generate over-expressing constructs, the antisense construct was omitted and the Pdk intron of pKANNIBAL was left intact. Previous studies have shown the inclusion of an intron can lead to higher and more consistent expression levels in transgenic plants (Norris et al., 1993).
Tri-parental mating was used to integrate the constructs into Agrobacterium rhizogenes K599 which induces the formation of transgenic hairy roots in soybean (Kereszt et al., 2007).

G. max nodulation = test: Overexpression of GmRIC1 in hairy roots of G. max, nodules counted (Example 2); format: in vivo, Glycine max; conditions: vs empty vector; for nodulation on overexpression: G. max WT (Williams)
Experimental: (§2) Transformation was done using the hairy root method. Agrobacterium rhizogenes containing a vector with the RIC1 gene (CLE30) and 35s promoter was injected into the stems of young plants. Once transgenic ‘hairy roots’ began growing from the stems the primary roots were removed and the plants with the transgenic roots were replanted and inoculated with the appropriate rhizobia strain.
(§3) All plants were grown in and in 30 well seed trays of grade 3 vermiculite. G. soja seeds were scarified and soaked in MQ H2O before planting. All plants were grown in growth cabinets under 16 h day and 8 h night conditions. P. vulgaris and G. max were grown at 28° C. G. soja were grown at 24° C. All plants were fertilised with a no nitrogen fertiliser and B&D solution (Broughton & Dilworth 1971).
(§4) A. rhizogenes K599 with either p15SRK2::GmRIC1 ox or p15SRK2 were grown on LB media (10 g/L Tryptone, 5 g/L Yeast extract, 10 g/L NaCl) for 2 days at 28° C. The bacteria were harvested by scraping it from the agar plate. The harvested bacteria were suspended in 3 mL MQ H2O, ensuring no lumps remained.
(§5) When all plants had unfolded cotyledons they were injected at the hypocotyl as close to the junction of the cotyledons as possible with the A. rhizogenes solutions (Kereszt et al, 2007; Estrada-Navarrete, 2006). Half of each of the WT and mutant lines received A. rhizogenes p15SRK2+GmRIC1 OX and the other half of the plants received A. rhizogenes p15SRK2; Totalling 4 treatment groups.
(§6) The infection technique was the same for all species using A. rhizogenes K599. To increase the likelihood of the K599 producing hairy roots, the A. rhizogenes was inoculated with 1 mL 200 μM acetosyringone one hour prior to harvesting the bacteria. After infection all seed trays were misted with H2O, covered and sealed to ensure high humidity.
Once root tips were visible at the point of infection, the primary roots of the plants were removed and the hairy roots were re-planted. Plants were left in the growth cabinets for one week to form an adequate root system. […] After 2-3 weeks plants were uprooted and the nodules counted.

G. soja nodulation = test: Overexpression of GmRIC1 in hairy roots of G. soja, nodules counted; format: in vivo, Glycine soja; conditions: WT G. soja, vs vector only
Experimental: as §2, §3
as §4, with “remained. […]” for “remained.”
Once root tips were visible at the point of infection, the primary roots of the plants were removed and the hairy roots were re-planted. […] After 2-3 weeks plants were uprooted and the nodules counted.

P. vulgaris nodulation = test: Overexpression of GmRIC1 in hairy roots of P. vulgaris, nodules counted; format: in vivo, Phaseolus vulgaris; conditions: vs vector only
Experimental: as §2, §3, §4, §5, §6
Once root tips were visible at the point of infection, the primary roots of the plants were removed and the hairy roots were re-planted. Plants were left in the growth cabinets for one week to form an adequate root system. The plants were subsequently transferred to the glasshouse and re-potted into larger pots. After re-potting plants were also inoculated with the appropriate strain of rhizobia for that particular species. Plants were watered and fertilised with B&D solution (Broughton & Dilworth 1971). After 2-3 weeks plants were uprooted and the nodules counted.

[5] = nod4 supernodulation nark mutant plants
[6] = wild-type (Williams) soybean, transgenic hairy roots

Molecule: Cl.N [NH4Cl, Ammonium Chloride]
- expression of CLE30 and CLE80 in roots [1]: did not affect expression
- CLE60 expression in roots [1]: induced expression of CLE60

Molecule: CLE13: Medicago truncatula CLE peptide reported to reduce nodulation (Mortier et al., 2010) (LRDHPLIHKNIDSRSLLQKLRIHISNHKQVRDISGDRLSPAGPDPQHNGRSPPRK; UniProt G7JV15 30-84, looked up)
- NARK/SUNN/HAR1 dependent inhibition [2]: partial
- Systemic activity [2]: yes

Molecule: CLE12: Medicago truncatula CLE peptide reported to reduce nodulation (Mortier et al., 2010) (LEGGSNIDSQRLLHELMVDRIKQKRSRTDLEDKAVPGDRLSPGGPNHIHN; UniProt G7ZZZ3 32-81, looked up)
- NARK/SUNN/HAR1 dependent inhibition [2]: partial
- Systemic activity [2]: yes

Molecule: O=[N+]([O-])[O-].[K+] [KNO3, Potassium Nitrate]
- CLE30 expression in roots ([1]; 10 mM KNO3 for two weeks vs 0 mM water control): unchanged
- expression of CLE30 and CLE80 in roots [1]: not that of CLE80 or CLE30
- CLE60 expression in roots [1]: significantly induced expression of CLE60
- KNO3 level at which CLE60 was significantly induced (as low as) ([1]; 2 days prior to and 2 weeks following rhizobia inoculation): 2 mM
- nodule numbers with KNO3 concentration (soybean nodulation [3]; 0, 2, 5, 10 or 15 mM KNO3, 2 weeks after inoculation): reduced in an inverse manner
- nodule numbers of grafted plants (soybean nodulation [3]; 5 mM or 10 mM KNO3, WT scion, wild-type rootstock compared to nod4 mutant rootstock): reduced significantly

B1: CLE60: Glycine max CLE protein, SEQ ID NO:6; nitrate induced CLE acting locally in the root (protein)
chain: MLEALGEMANAKQVLCLILLVLLFSKLESRSLEAFIEGKKTLAKGCSRELIEKSQLLKASFAKATTRFTNPRVSKRLSPGGPDQKHH
modifications: Glycine max
notes: nitrate induced CLE acting locally in the root
- NARK/SUNN/HAR1 dependent inhibition (soybean nodulation [4]): yes
- Systemic activity (soybean nodulation [4]): no
- nodulation (nodule number) on over-expression (soybean nodulation [4]; [5]): no corresponding reduction in nodulation; also recorded: nodule numbers were not reduced
- reduction in nodulation (soybean nodulation [4]; over-expression, wild-type soybean): ~50%
- nodulation (nodule number) on over-expression (soybean nodulation [4]; [6]): only partially reduces nodulation; also recorded: reduced nodulation by approximately half; also recorded: nodules were reduced or partially eliminated

B2: CLE80: Glycine max CLE protein, SEQ ID NO:7; rhizobia inoculation induced CLE (protein)
chain: MGNTSATLVPILALIMFSTFFMTLQARSLHGHNPLFAHKKVVDIQNFLHKSGIHLSKRVRIPFGDDLPLAPADRLAPGGPDPQHNVRAPPRKP
modifications: Glycine max
- NARK/SUNN/HAR1 dependent inhibition (soybean nodulation [4]): yes
- Systemic activity (soybean nodulation [4]): yes
- nodulation (nodule number) on over-expression (soybean nodulation [4]; [5]): no reduction in the nodule numbers; also recorded: complete lack of nodule inhibition; also recorded: nodule numbers were not reduced
- nodulation (nodule number) on over-expression (soybean nodulation [4]; [6]): completely abolishes soybean nodulation; also recorded: completely eliminated nodulation; also recorded: eliminated nodulation completely; also recorded: nodules were eliminated

B3: CLE30: Glycine max CLAVATA3/ESR-related (CLE) protein, SEQ ID NO:5; rhizobia induced CLE, over-expressed in transgenic hairy roots (protein)
chain: MANATMATRVSILIALIILSTFFMTLQASNLHGHPFIRENNIADSHHFLHKYLDDLSKHIHVQDADDAPHKDGNTHRLAPEGPDPHHNFATPPRN
modifications: Glycine max
notes: rhizobia induced CLE, over-expressed in transgenic hairy roots
- NARK/SUNN/HAR1 dependent inhibition (soybean nodulation [4]): yes
- Systemic activity (soybean nodulation [4]): yes
- nodulation (nodule number) on over-expression (soybean nodulation [4]; [5]): no reduction in the nodule numbers; also recorded: complete lack of nodule inhibition; also recorded: nodule numbers were not reduced
- nodulation (nodule number) on over-expression (soybean nodulation [4]; [6]): completely abolishes soybean nodulation; also recorded: completely eliminated nodulation; also recorded: eliminated nodulation completely; also recorded: nodules were eliminated
- nodulation on overexpression (G. max nodulation): inhibits nodulation
- nodulation on overexpression (G. max nodulation; listed as GmRIC1): completely inhibits nodulation
- nodule numbers on overexpression (G. max nodulation; G. max nod4 lacking functional NARK): nodule numbers were unchanged
- nodulation on overexpression (G. soja nodulation): inhibits nodulation
- nodulation on overexpression (G. soja nodulation; listed as GmRIC1): completely inhibited nodulation; also recorded: complete inhibition of nodulation
- nodulation on overexpression (P. vulgaris nodulation; P. vulgaris R32 supernodulation (AON) mutant): no effect
- nodulation on overexpression (P. vulgaris nodulation; P. vulgaris R32 supernodulation (AON) mutant, listed as GmRIC1): no significant effect
- nodulation on overexpression (P. vulgaris nodulation; P. vulgaris WT cv. OAC RICO): inhibits nodulation
- nodulation on overexpression (P. vulgaris nodulation; P. vulgaris WT cv. OAC RICO, listed as GmRIC1): inhibition of nodulation
